Measurements from patent US20220242958A1, “BISPECIFIC NANOBODIES” (Ablynx N.V., priority 2013, published 2022).
Where two headings read alike, the source gives them in different places.

Assays:
[1] = target: T1, CXCR4 on Caki-CXCR4 cells (Homo sapiens, UniProt P61073); assay: Biotinylated SDF-1 displacement on Caki-CXCR4 cells (flow cytometry); type: binding; conditions: 30 nM biotinylated SDF-1; read-out: Ligand competition Biotin-SDF-1 IC50
T1 construct: expressed in transfected cells; host or cells: Caki-CXCR4
T1 sequence (P61073 whole entry): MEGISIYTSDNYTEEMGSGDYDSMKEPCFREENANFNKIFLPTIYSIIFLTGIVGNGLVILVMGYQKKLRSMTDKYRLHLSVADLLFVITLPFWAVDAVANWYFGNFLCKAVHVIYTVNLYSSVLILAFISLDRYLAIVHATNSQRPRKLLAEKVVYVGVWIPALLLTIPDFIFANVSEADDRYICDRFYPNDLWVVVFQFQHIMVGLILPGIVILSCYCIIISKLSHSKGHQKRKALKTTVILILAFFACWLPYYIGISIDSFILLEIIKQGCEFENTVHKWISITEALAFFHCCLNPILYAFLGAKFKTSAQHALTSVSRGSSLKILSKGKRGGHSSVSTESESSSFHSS
Experimental: CXCR4 Nanobodies were analysed for their ability to compete with the ligand CXCL12 (or SDF-1a) for receptor binding, by displacement of biotinylated SDF-1 on Caki-CXCR4 cells in flow cytometry. To this end serial dilutions of Nanobodies were incubated with 30 nM of biotinylated SDF-1 (R&D Systems Fluorokine kit) on cells, after which ligand binding was visualised using extravidin-PE. The biotin-SDF-1 competitor concentration used in this assay was below the EC50 value obtained in dose-titration, where IC50 values should reflect the Ki.

[2] = target: T2, CXCR4 on Jurkat E6-1 cells (Homo sapiens, UniProt P61073); assay: CXCL12/SDF-1a induced chemotaxis of Jurkat E6-1 cells; type: cell-based
T2 construct: endogenous in cells; host or cells: Jurkat E6-1
T2 sequence (P61073 whole entry): as above
Experimental: (§1) To verify if bispecific CXCR4-IL3Ra polypeptides show increased affinity and potency on cells expressing both receptors, a CXCR4-dependent functional assay was carried out. To this end SDF-1a dependent chemotaxis on Jurkat E6-1 (CXCR4+/IL3Ra−), and MOLM-13 cells (CXCR4+/IL3Ra+) was performed for direct comparison of cells expressing both or only one receptor. Since the functional blockade is only mediated via CXCR4, avidity by the simultaneous binding of the anti-IL3Ra Nanobody® is expected to translate into increased potency in inhibition of chemotaxis.
(§2) Bispecific polypeptides were analyzed for inhibition of CXCL12-induced chemotaxis on cells endogenously expressing CXCR4. As chemoattractant a concentration of 750 pM SDF-1a was used on 100,000 cells/well for the Jurkat cell line, and 500,000 cells/well for the MOLM-13 cell line. On each plate the corresponding monovalent CXCR4 Nanobody was included as reference, allowing to calculate the fold increase of the bispecific within each plate. As additional control 1:1 mixtures of monovalent Nanobodies were included. In Table 9 the respective IC50 values are shown (average of n=3 experiments).
To verify if bispecific CXCR4-IL-3Ra polypeptides show increased affinity and potency on cells expressing both receptors, a CXCR4-dependent functional assay was done. Since MOLM-13 cells express CD4 in conjunction with CXCR4 and CD123, the same experimental set-up was used as described for the CXCR4-CD123 bispecific Nanobodies (see: Example 1.5.5).
Dose-dependent inhibition of CXCL12-induced chemotaxis by the panel of bispecific CD4-CXCR4 Nanobodies was determined on Jurkat (CXCR4+/CD4 low), and Molm-13 cells (CXCR4++/CD4++). As reference anti-CXCR4 antibody 12G5 was included on each plate. […] Remarkably, bispecific constructs in the inverse orientation were able to block CXCR4 function, despite their reduced affinity for CXCR4 due to the unfavourable position, although the blockade was partial. The much larger potency increases observed with Nanobodies targeting the CD4 and CXCR4 combination is most likely related to the higher relative expression levels of CD4 compared to CD123 on the Molm-13 cells.

CXCR4 on MOLM-13 cells = target: T3, CXCR4 on MOLM-13 cells (Homo sapiens, UniProt P61073); assay: CXCL12/SDF-1a induced chemotaxis of MOLM-13 cells; type: cell-based; conditions: average of 2-3 independent experiments; unit inferred; read-out: MOLM-13 IC50, inhibition of CXCL-12 induced chemotaxis
T3 construct: endogenous in cells; host or cells: MOLM-13
T3 sequence (P61073 whole entry): as above
Experimental: as §1
as §2, with “experiments). […]” for “experiments).”
Dose-dependent inhibition of CXCL12-induced chemotaxis by the panel of bispecific CD4-CXCR4 Nanobodies was determined on Jurkat (CXCR4+/CD4 low), and Molm-13 cells (CXCR4++/CD4++). […]

[3] = target: T1, CXCR4 on Caki-CXCR4 cells; assay: Binding of CXCR4 Nanobodies to Caki-CXCR4 cells
CXCR4 on Jurkat cells = target: T4, CXCR4 on Jurkat cells (Homo sapiens, UniProt P61073); assay: Binding of CXCR4 Nanobodies to Jurkat cells
T4 construct: endogenous in cells; host or cells: Jurkat E6-1
T4 sequence (P61073 whole entry): as above

CXCR4-VLP = target: T5, CXCR4-VLP (Homo sapiens, UniProt P61073); assay: ELISA binding to CXCR4 viral lipoparticles (VLP)
T5 construct: purchased Integral Molecular (printed 'Molecular Integral')
T5 sequence (P61073 whole entry): as above
Experimental: Binding of CXCR4 Nanobodies to CXCR4-expressing cells was assessed on different cell lines, to assess EC50 values. For CXCR4 the membrane insertion is needed for proper conformation and functionality of the receptor. Therefore CXCR4 Nanobodies were characterized for binding to viral lipoparticles (VLP; Molecular Integral) expressing CXCR4 versus control lipoparticles in ELISA. To this end VLPs were coated at 0.5 U/well overnight at 4° C. using anti-myc antibodies for detection. Over all different binding assays, Nanobody 14D09 always exerted lower binding affinity than 14A02, as indicated by a shift in EC50 values. The results are depicted in FIG. 1.3.
To assess if the formatting into bispecific constructs affected the target binding capacity of the individual Nanobodies, the bispecific Nanobodies were analysed for binding to recombinant IL-3Ra (R&D Systems) in ELISA and to CXCR4 viral lipoparticles (Integral Molecular). […] However, CXCR4 binding of constructs with either CXCR4#1 or CXCR4#2 is retained only in one orientation, when the CXCR4 Nanobody is at the N-terminal position. The bispecific constructs where the CXCR4 Nanobody is positioned C-terminal show a 50-100-fold loss in binding to CXCR4-VLPs.

B1: CXCR4#1: anti-CXCR4 Nanobody, SEQ ID NO: 1 (protein)
VHH: EVQLVESGGGLVQAGGSLRLSCVASGISSSKRNMGWYRQAPGKQRESVATISSGGNKDYTDAVKDRFTISRDTTKNTVYLQMNSLKPEDTAVYYCKIEAGTGWATRRGYTYWGQGTQVTVSS
[1]
  IC50: 18.4 nM
[2]; average of 2-3 independent experiments, unit inferred, read-out: Jurkat E6-1 IC50, inhibition of CXCL-12 induced chemotaxis
  IC50: 10.4 nM
[2]; cell line not stated, read-out: IC50 of monovalent CXCR4 Nanobody (chemotaxis potency)
  IC50: 10 nM
[2]; monovalent CXCR4 Nanobodies, Table 4, read-out: Chemotaxis Jurkat IC50
  IC50: 11 nM
CXCR4 on MOLM-13 cells
  IC50: 8.62 nM
[3]
  EC50: 9.9 nM
CXCR4 on Jurkat cells
  EC50: 11 nM
CXCR4-VLP
  EC50: 7.28 nM
